Data as given in the nanobody polyreactivity screen of Harvey et al. (2022).

Test: yeast display, Sf9 membrane polyspecificity reagent, FACS + sequencing; frameworks hold sequencing errors
Method in brief: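 Galactose induction of a Saccharomyces cerevisiae BJ5465 synthetic nanobody display library ran 36–48 hours. The cells were then stained for 1 hour at 4 °C with 10% biotinylated, detergent-solubilized Sf9 membrane reagent, pulled down on streptavidin microbeads and FACS-sorted into low and high (top ~1%) gates on expression and reagent-binding fluorescence. Labels for polyreactivity follow the gate of origin.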
With “QVQLVESGGGLVQAGGSLRLSCAASGIILYVNAMGWYRQAPGKERELVAAISWGGGSTYYADSVKGRFTISRDNAKNTVYLQMNSLKPEDTAVYYCAAEFWSGYPTYTYDYWGQGTQVTVSS” the “polyreactivity (PSR sort gate)” value was “low polyreactivity”. For “QVQLVESGGGLVQAGGSLRLSCAASGIIPSYAMGWYRQAPGKERELVAGISRSGGSTYYADSVKGRFTISRDNAKNTVYLQMNSLKPEDTAVYYCAARVKVRDFKGYYWGQGTQVTVSS”, the “polyreactivity (PSR sort gate)” value was “high polyreactivity”. For “QVQLVESGGGLVQAGGSLRLSCAASGIISGDYALGWYRQAPGKERELVARITSGDSTNYADSVKGRFTISRDNAKNTVYLQMNSLKPEDTAVYYCAADRVWAYWTYGYWGQGTQVTVSS”, the “polyreactivity (PSR sort gate)” value was “low polyreactivity”. With “QVQLVESGGGLVQAGGSLRLSCAASGIISGDYAMAWYRQAHGKERELVARITSGDSTNYADSVKGRFTISRDNAKNTVYLQMNSLKPEDTAVYYCAADRVWAYWTYGYWGQGTQVTVSS” the “polyreactivity (PSR sort gate)” value was “low polyreactivity”. With “QVQLVESGGGLVQAGGSLRLSCAASGIISIFNVMGWYRQAPGKERELVASITGRGGSTFYADSVKGRFTISRDNAKNTVYLQMNSLKPEDTAVYYCATDTGYTYPVTGLYDYWGQGTQVTVSS” the “polyreactivity (PSR sort gate)” value was “low polyreactivity”. For “QVQLVESGGGLVQAGGSLRLSCAASGIIVEYYTMGWKRQAPGKERELVASITYDGDTTYYADSVKGRFTISRDNAKITVYLQMNSRKPEDTAVYYCAADYYYVYSSFGHYYWGQGTQVTVSS”, the “polyreactivity (PSR sort gate)” value was “low polyreactivity”. For “QVQLVESGGGLVQAGGSLRLSCAASGIIVPNAMGWYRQAPGKERELVAVITSGGSTYYADSVKGRFTISRDNAKNTVSLQMNSLKPEDTAVYYCNKDYAAIDRYDSWGQGTQVTVSS”, the “polyreactivity (PSR sort gate)” value was “low polyreactivity”. With “QVQLVESGGGLVQAGGSLRLSCAASGIIVPNAMGWYRQAPGKERELVAVITSGGSTYYADSVKGRFTISRDNAKNTVYLQMNSLKPEDTAVYYCNKDYAAIDRYDSWGQGTQVTVSS” the “polyreactivity (PSR sort gate)” value was “low polyreactivity”. With “QVQLVESGGGLVQAGGSLRLSCAASGIIWYYAMGWYRQAPGKERELVAAISWSSGSTYYADSVKGRFTISRDNAKNTVYLQMNSLKPEDSAVYYCAADVYLVKYDYWGQGTQVTVSS” the “polyreactivity (PSR sort gate)” value was “high polyreactivity”. For “QVQLVESGGGLVQAGGSLRLSCAASGINFAYNAMGWYRQAPGKERELVATITDSGGSTSYADSVKGRFTISRDNAKNTVYLQMNSLKPEDTAVYYCAVLPVYWYWRNYVYLSGYDYWGQGTQVTVSS”, the “polyreactivity (PSR sort gate)” value was “low polyreactivity”. In the case of “QVQLVESGGGLVQAGGSLRLSCAASGINFDDNAMGWYRQAPGKERELVATISDGGRTYYADSVKGRFTISRDNAKNTVYLQMNSQKPEDTAVYYCADRLWWPYSPAWAKMDYGGQGTQVTVSS”, the “polyreactivity (PSR sort gate)” value is reported as “low polyreactivity”. With “QVQLVESGGGLVQAGGSLRLSCAASGINFDTNAIGWYRQAPGKERELVATITQRGGTTYYADSVKGRFTISRDNAKNTVYLQMNSLKPEDTAVYYCNAGPVGLPYDSWGQGTQVTVSS” the “polyreactivity (PSR sort gate)” value was “low polyreactivity”. In the case of “QVQLVESGGGLVQAGGSLRLSCAASGINFFGKYAMGWYRQAPGKERELVAAISWSGGRTYYADSVKWRFTISRDNAKNTVYLQMNSLKPEDTAVYYCAVYPRDAERYGYCGQGTQVTVSS”, the “polyreactivity (PSR sort gate)” value is reported as “high polyreactivity”. With “QVQLVESGGGLVQAGGSLRLSCAASGINFKGNAMGWYRQAPGKERELVATISSGGTTNYADSVKGRFTISRDNAKNTVYLQMNSLKPEDTAVYYCAKRGYYRSRRYDYWGQGTQVTVSS” the “polyreactivity (PSR sort gate)” value was “high polyreactivity”. In the case of “QVQLVESGGGLVQAGGSLRLSCAASGINFKRYAMGWYRQAPGKESELVATINRDGRTSYADSVKGRFTISRDNAKNTVYLQMNSLKQEDTAVYYFNKRGTYATPTPGNLFDYWGQGTLVTVSS”, the “polyreactivity (PSR sort gate)” value is reported as “low polyreactivity”. For “QVQLVESGGGLVQAGGSLRLSCAASGINFSPYAMGWYRQAPGKERELVAAISYSGGSTYYADSVKGRFTISRDNAKNTVYLQMNSLKPEDTAVYYCAVVYSYYLAVLGYWDYDYWGQGTQVTVSS”, the “polyreactivity (PSR sort gate)” value was “low polyreactivity”. For “QVQLVESGGGLVQAGGSLRLSCAASGINFVGYAMGWYRQAPGKERELVAAISTSSRTYYADSVKGRFTISRDNAKITVYLHMNSLKPDDTAVYYCNARGTRWYYRHDYWGQGTQVTVSS”, the “polyreactivity (PSR sort gate)” value was “high polyreactivity”. For “QVQLVESGGGLVQAGGSLRLSCAASGINFYYNAMGWYRQAPGKERELVATISWSDTSTYYADSVKGRFTISRDNAKNTVFLQMNSLKPEDTAGYYCATDGRETWLPEYYWGQGTQVTVSS”, the “polyreactivity (PSR sort gate)” value was “low polyreactivity”. In the case of “QVQLVESGGGLVQAGGSLRLSCAASGIPRNTMGWYRQAPGKERELVASISTSGGSTYYADSVKGRFTISLDNAKKTVYLQMNSLKPEDTAVYYCAKKAYASRYFIYDYWGQGTQVTVSS”, the “polyreactivity (PSR sort gate)” value is reported as “low polyreactivity”. In the case of “QVQLVESGGGLVQAGGSLRLSCAASGISFSQYARGWYRQAPGKERELVAAISGSGGDTYYADSVKGRFTISRDNAKNTVYLQMNSLKPEDTAVYYCNADYESVYYEDYDYWGQGTQVTVSS”, the “polyreactivity (PSR sort gate)” value is reported as “low polyreactivity”. In the case of “QVQLVESGGGLVQAGGSLRLSCAASGISYTSYAMGWYRQAPGKERELVAAISSSGGSTYYADSVKGRFTISRDNAKNTVYLQMNSLKPEDTAVYYCIARPRSRSPRVEYDYWGQGTQVTVSS”, the “polyreactivity (PSR sort gate)” value is reported as “high polyreactivity”. In the case of “QVQLVESGGGLVQAGGSLRLSCAASGITFAENAMGWFRQAPGKERELVAAISGSGVDTYYADSVKGRFTISRDNAKNPVYLQMNSVKPEDTAVYYSNAVYYRSSYPSGRYGMDYWGQGTQVTVSS”, the “polyreactivity (PSR sort gate)” value is reported as “high polyreactivity”. In the case of “QVQLVESGGGLVQAGGSLRLSCAASGITFARYAMAWYRPAPGKERELVAAISKRGGRTYYADSVKGRFTISRDNAKNTFYLQMNSLKPEDTAVYYCATDYYVSTDYNYWGQGTQVTLSS”, the “polyreactivity (PSR sort gate)” value is reported as “high polyreactivity”. In the case of “QVQLVESGGGLVQAGGSLRLSCAASGITFASNTMGWYRQAPGKERELVAAITRGDNTYYADSVKGRFTISRDNAKNTVYLQMNSLKPEDTSVYYCATEGYQIQYEHDYWGQGTQVTVSS”, the “polyreactivity (PSR sort gate)” value is reported as “low polyreactivity”. For “QVQLVESGGGLVQAGGSLRLSCAASGITFATNAMGWYRQAPGKERDLVAGITSGGSTYYADSVKGRFTISRDNAKNTVYLQMNSLKPEDTAVYYCAKRYHYWYGTGYDYWGQGTQVTVSS”, the “polyreactivity (PSR sort gate)” value was “low polyreactivity”. For “QVQLVESGGGLVQAGGSLRLSCAASGITFAYYAMGWYRQAPGKERELVAAIRWSGGDTYYADSVKGRFTISRDNAKNTVYLQMNSLKPEDTAVYYCAADTTWGYDYWGQGTQVTVSS”, the “polyreactivity (PSR sort gate)” value was “low polyreactivity”. In the case of “QVQLVESGGGLVQAGGSLRLSCAASGITFAYYAMGWYRQAPGKERELVAVITSGGRTNYADSVKGRFTISRDNAKNTVYLQMNSLKPEDTAVYYCAAYRSSKTLRLGYYYWGQGTQVTVSS”, the “polyreactivity (PSR sort gate)” value is reported as “high polyreactivity”. With “QVQLVESGGGLVQAGGSLRLSCAASGITFCYNTMGWYRQAPGKERELVAAISGSGGRTYYADSVKGRFTISRDNAKNTVYLQMNSLKPEDTAVYDCAARWQIWSSLYDYWGQGTQVTVSS” the “polyreactivity (PSR sort gate)” value was “high polyreactivity”. For “QVQLVESGGGLVQAGGSLRLSCAASGITFDDYAMGWYRQAPGKERELVAAISESGDSTYYADSVKGRFTISRDNAKNTVYFQMNSLKPEDTAVYYCAADSTYYYGWGMYYWGQGTQVTVSS”, the “polyreactivity (PSR sort gate)” value was “high polyreactivity”. With “QVQLVESGGGLVQAGGSLRLSCAASGITFDDYDMGWYIQAPGKEREFVAAISFSGSSTYYADSVKGRFTISRDNAKNTVYLQMNSLKPEDTAVYYCAAVTTGTITSKYNYWGQGTQVTVSS” the “polyreactivity (PSR sort gate)” value was “low polyreactivity”. With “QVQLVESGGGLVQAGGSLRLSCAASGITFDDYDMGWYRQAPGKERELVAAISWSGGSTYYADSVKGRFTISRDNAKTTVYLQMNSLKPEDTAVYYCAAEVIWWVREYYYWGQGTQVTVSS” the “polyreactivity (PSR sort gate)” value was “low polyreactivity”. For “QVQLVESGGGLVQAGGSLRLSCAASGITFDGYAMGWNTQAPGKEREFVAAITWNGGSTYYADSVKGRFTISRDNAKNTVYLQMNSLKPEDTAVYYCNADPFTGYDYWGQGTQVTVSS”, the “polyreactivity (PSR sort gate)” value was “low polyreactivity”. In the case of “QVQLVESGGGLVQAGGSLRLSCAASGITFDHYAMGWYRQAPGKEREFVAAIDDIGGDTYYADSVKGRFTISRDNAKNTVYLQMNSLKPEDTAVYYCAADYGYYSRFYYWGQGTQVTVSS”, the “polyreactivity (PSR sort gate)” value is reported as “low polyreactivity”. With “QVQLVESGGGLVQAGGSLRLSCAASGITFDLYVMGWYRQAPGKERDLVAAINRGTSTYYADSVKGRFTISRDNAKITVYLQMNSLKPEDTAVYYCAADSGGVALYRYDYWGKGTQVTVSS” the “polyreactivity (PSR sort gate)” value was “low polyreactivity”. For “QVQLVESGGGLVQAGGSLRLSCAASGITFDNNAMGWYRQAPGKEREFVADIDGSGGSTYYADSVKGRFTISRDNAKNTVYLQMNSLKPEDTAVYYCNAGYVHSFDYWGQGTQVTVSS”, the “polyreactivity (PSR sort gate)” value was “low polyreactivity”. In the case of “QVQLVESGGGLVQAGGSLRLSCAASGITFDSYAMGWNRQAPGKERELVAAISYSGGSTYYADSVKGRFTISRDNAKNTVYLQMNSLNPEDTAVYFCAAGSDDDYDYWGQGTQVTVSS”, the “polyreactivity (PSR sort gate)” value is reported as “low polyreactivity”. With “QVQLVESGGGLVQAGGSLRLSCAASGITFDTYAMGCYIQAPGKERELVAAISKSGGSTYYADSVKGRFTISRDNAKNTVYLQMNSLKPEDTAVYYCNARYRNSGRYWDWYYYWGQGTQVTVSS” the “polyreactivity (PSR sort gate)” value was “high polyreactivity”. For “QVQLVESGGGLVQAGGSLRLSCAASGITFDYYAMGWYRQAPGIERELVAAIDDSGGSTYYADSVKGRFTISRDNAKNTVYLQMNSLKPEDTAVYYCAAEFFYYEYDYWGQGTQVTVSS”, the “polyreactivity (PSR sort gate)” value was “high polyreactivity”. With “QVQLVESGGGLVQAGGSLRLSCAASGITFDYYAMGWYRQAPGKERELVAAIDTGGSTNYADSVKGRFTISRDNAKNTVYLQMNSLKPEDTAVYYCAKDPHGSDFGYWGQGTQVTVSS” the “polyreactivity (PSR sort gate)” value was “low polyreactivity”. In the case of “QVQLVESGGGLVQAGGSLRLSCAASGITFDYYAMGWYRQAPGKERELVAAISWGGGSTYYADSVKGRFTISRDNAKNTVYLQMNSLKPEDTAVYYCAADIVSSPSSYVPPGDYWGQGTQVTVSS”, the “polyreactivity (PSR sort gate)” value is reported as “low polyreactivity”. In the case of “QVQLVESGGGLVQAGGSLRLSCAASGITFDYYAMGWYRQAPGKERELVAAISWGGGSTYYADSVKGRFTISRDNAKNTVYLQMNSLKQEDTAVYYCAAVIVYSPSSYVRPGDYWGQGTQVTVSS”, the “polyreactivity (PSR sort gate)” value is reported as “low polyreactivity”. For “QVQLVESGGGLVQAGGSLRLSCAASGITFDYYAMGWYRQAPGKERELVAAISYSGGSTYYADSVKGRFTISRDNAKNTVYLQMNSLKPEDTAVYYCAAETFTISSDYYYWGQGTQVTVSS”, the “polyreactivity (PSR sort gate)” value was “low polyreactivity”. In the case of “QVQLVESGGGLVQAGGSLRLSCAASGITFDYYAMGWYRQAPGKERELVAAITSVGNTYYADSVKGRFTISRDNAKNTVYLQMNSLKPEDTAVYYCNALSFYSLVSFDYWGQGTQVTVSS”, the “polyreactivity (PSR sort gate)” value is reported as “low polyreactivity”.
